Data from the supplement of paper PMC12042874.
± gives the uncertainty stated by the source.

assay: amyloid nucleation score (Sup35N fusion, yeast selection) (log enrichment); library NNK3; higher = more nucleation; inactive = no reads after selection
Procedure, shortened: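 DiMSum was used to calculate nucleation scores as log enrichment of output over input reads, centred on the mode score of non-aggregating sequences. Sequences with fewer than 100 input reads were not scored. Input and output came from Illumina sequencing of plasmid inserts in psi-negative yeast expressing peptides of 20 random codons fused to Sup35N, induced 24 hours with 100 μM copper sulfate and then grown 7 days at 30°C on medium lacking adenine and uracil.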

| Substance | amyloid nucleation score |
| --- | --- |
| CIVRIVQST | inactive |
| CIWLTVIFSWRYEVG | inactive |
| CKFEMSEIDFVYASSIFR | inactive |
| CKLYHIIGLYLGVVVL | inactive |
| CKSIPWVFYWFLLLYGYL | inactive |
| CKTIKVVLAALGFCYPQYSL | inactive |
| CKYSMRLDCLARNNDLKVLL | inactive |
| CLCFCCCSRVHYGTLFRNSA | 2.98 ± 0.052 |
| CLCSTRVRGSFPPDSTVHNF | inactive |
| CLCWKAVLDRELFKSGFTAA | inactive |
| CLFVCDYGLFECGQMVVEVY | inactive |
| CLGYRFVWGVPFVKFDRIIW | inactive |
| CLLSYSQPLGKGFGSTRDRC | inactive |
| CLPQHKISNH | inactive |
| CLSFYCTVSKKVRRKAVTPF | 0.807 ± 0.2 |
| CLSLLNFDVCVMRSVVRVFA | inactive |
| CMFSPPCDLRGETVLRRPSL | 0.143 ± 0.62 |
| CMMSWIDSNFRGSEMLTH | inactive |
| CMNIRPMATLTESSS | inactive |
| CMPHG | inactive |
| CMQLVMSYTVCFVDGGVLA | inactive |
| CMRSESCVVPRNNKFFLLSG | -0.361 ± 0.96 |
| CMTLYLLSLSC | inactive |

| Substance | amyloid nucleation score |
| --- | --- |
| CMTTASVQDKMVLLVWLLDE | inactive |
| CNFNLILLMDGIKGSFL | 2.35 ± 0.065 |
| CNIEGYNETNVCECWNMELL | inactive |
| CNIVSMFGCSGVMMACAAVV | inactive |
| CNKSFRLYEMM | inactive |
| CNLVDSYNSKRMVNSTSMPF | inactive |
| CNMSPKNFSIFSFVPNKPVG | inactive |
| CNTGPEIMASVAKVDVWVIK | 1.65 ± 0.11 |
| CNVRFCIDFMIFMVISDSKD | 1.11 ± 0.14 |
| CNYCGPEAFGILFDYWTMSY | inactive |
| CPESCSN | inactive |
| CPKALRIIGRSYCRTSEVTS | inactive |
| CPTPGWTLKRVGRVYECRG | inactive |
| CQTGRYRESALSVLARKLNA | inactive |
| CRINEWLGIGNSVSSSDHMG | inactive |
| CRISSPAGVNLLDSSRLSRL | inactive |
| CRKNRSFGDGDLKFCANLNC | inactive |
| CRLVAEYGLQVKPMQR | inactive |
| CRRPKRNH | inactive |
| CRRVMVILMH | inactive |
| CRTQYKCRIAIWGYKFQPER | inactive |
| CSALC | inactive |
| CSATRYFCRNLRRVCVNEYG | inactive |

| Substance | amyloid nucleation score |
| --- | --- |
| CSCFYNNRIISSPMLLWLVQ | inactive |
| CSIVVNLMYLLVDACMGPKG | inactive |
| CSKIFGRERMFYRVDMVS | inactive |
| CSMLASMWTTIRYLLLLEVA | 1.49 ± 0.09 |
| CSNLVLP | -0.765 ± 1.4 |
| CSPVTCEISDWIV | inactive |
| CSQIPLHKLTMCMLY | inactive |
| CSRSAENNFMMNLLNTIRVL | inactive |
| CSRSSLLLVDWPMVGSDKLL | inactive |
| CSYAEKIVKGLAPVFLKVN | inactive |
| CTNKFVWKFVKFNNLCLLAY | inactive |
| CTNKSSVYEFCYCVADMANV | inactive |
| CTRCVFSIR | -0.056 ± 0.57 |
| CTSESVSYNMDRTKCQMYLT | inactive |
| CTVGIYLLNLC | 2.45 ± 0.084 |
| CVDFR | inactive |
| CVEVLWERPSGTRAGMVGLL | -0.792 ± 1.4 |
| CVGSVPVMTKMVGDMGMASR | inactive |
| CVKVGDGCLHASIGAR | inactive |
| CVLAFVVVLLGWGHSSGAGG | 0.825 ± 0.2 |
| CVRFPANLSFGSDRKAKLS | inactive |
| CVRSTCQALGMGRWEPHCAI | inactive |
| CVSNLLTTYNNAFRFAHMVS | inactive |

| Substance | amyloid nucleation score |
| --- | --- |
| CVTYSYCYCQANHFHCRCQQ | 2.88 ± 0.062 |
| CVVNLHSRIEARLLQIYRAV | inactive |
| CVVTGMMYTVFDKAFCFNAS | 1.89 ± 0.11 |
| CVVVETLLNMRRSRY | inactive |
| CVYFGRVNFTVGLLPSLNGF | 1.46 ± 0.14 |
| CVYGKYLFLVIPEDEPTLYV | 0.439 ± 0.31 |
| CVYIDGSIAVGWYMKFILTF | inactive |
| CWDFKGFMMESLTNRSPYAS | inactive |
| CWFNPDPGLKWF | inactive |
| CWLAAFSFRRSVLSCQGGQG | inactive |
| CWLNLGVLKSLY | inactive |
| CWTAPLSKFLRVWVTIPYNL | inactive |
| CWTVMFCF | 1.43 ± 0.11 |
| CYAGRLSETSNWLLLCVELE | inactive |
| CYFSIYYYSYLLFRMLGVKW | inactive |
| CYLISILPLGLFIDSLAWVT | inactive |
| CYLNQSKYAARWNCGDNKME | inactive |
| CYMVEDRRIDSRSAVSWRYV | inactive |
| CYRYAIMNAFS | inactive |
| CYSKYSS | inactive |
| CYSLFSLPMKALRSISVRCW | 1.52 ± 0.13 |
| CYSNSEPISAYDD | inactive |
| CYVDVI | inactive |

| Substance | amyloid nucleation score |
| --- | --- |
| CYVIILVRL | inactive |
| CYVPVKGLYMPPYGTLRLWG | inactive |
| CYYDSLYCVEFHFCNYIVVL | -0.127 ± 0.99 |
| DACSVNEMSYVDTAGIWVWR | inactive |
| DADSMRWNSPGLCH | inactive |
| DAFIGYHYLGGLISGIWSSR | 0.693 ± 0.097 |
| DASSDRVSVYSAYK | inactive |
| DAYREY | -0.557 ± 1.2 |
| DCGATSLKTMASGLRMKRTS | inactive |
| DCLDNK | inactive |
| DCLFRNLMS | inactive |
| DCLMDGDFRILGSFIHRFSE | inactive |
| DCLSVEFVLNTRVAYWCTCA | -0.092 ± 0.52 |
| DCRWVCKFYPPVFNVIVEKV | inactive |
| DCVRVRVLKSGTYLLYRSEA | inactive |
| DDASFIMERI | inactive |
| DDCTTVF | inactive |
| DDLIGSIFKFLVLSRGKT | inactive |
| DDLMASTMGSSMG | inactive |
| DDYYFG | inactive |
| DECMARLNDWEGYAKD | inactive |
| DEISSFER | inactive |
| DELTNLPCY | -0.405 ± 0.79 |

| Substance | amyloid nucleation score |
| --- | --- |
| DEMRKGRWHGDRLGRSDRQE | inactive |
| DETVMFSFKFIVKSVVVDPR | inactive |
| DFEVSMGQR | -0.015 ± 0.8 |
| DFGHVIQSSWNSMNSAQSVA | inactive |
| DFGVYNEHHGYLILGIKRDQ | inactive |
| DFHVLRYVLFRWMWIIWRKG | inactive |
| DFIRRVHYLKLSVWDVMTMR | inactive |
| DFLVVYNAMCDKELVDTGEI | inactive |
| DFRGDLFELMMIYGRGMVLT | inactive |
| DFSGVSLDVITRRCLGFIGA | inactive |
| DFWRTIEGKMSLALI | inactive |
| DFWRYDSS | inactive |
| DFYGCGFTFTRSFFRQWFIG | 1.09 ± 0.11 |
| DGDYL | inactive |
| DGFYYSALLMFLV | inactive |
| DGGRTSLLLTEKKVR | inactive |
| DGHGRRHSRVQIRGIVACSD | inactive |
| DGLQSN | inactive |
| DGMSMCRQLLKGVQKPDYLL | inactive |
| DGNGLNTRGNLTSGIFHRQY | inactive |
| DGNLPPNWLKGACTFRWTFI | inactive |
| DGPHLPDHGGLM | inactive |
| DGQARISRYSTWLEEFLRCG | inactive |

| Substance | amyloid nucleation score |
| --- | --- |
| DGRCKMLPVESGGAC | inactive |
| DGRSIEFIDGCDVYSICSRE | inactive |
| DHHLEEYRL | inactive |
| DHYAWIFTDRLWYCRCNTVT | inactive |
| DIAKCNACGHENMFCRWMCV | inactive |
| DICLSYIFLL | 0.84 ± 0.17 |
| DILTMCEYDSDNNVGNLCYS | inactive |
| DINAVT | inactive |
| DINCSWTLQNGRGTLSE | inactive |
| DIQYWYTPVTKMTYSTNWFF | 1.26 ± 0.1 |
| DISSLR | inactive |
| DIYFTSESSVYIVHWFLFRH | inactive |
| DKIGDFNLYWHVKALLAYFY | inactive |
| DKNNLIFFLRAVCYFSSERT | 1.08 ± 0.11 |
| DKSMIFVFI | 0.864 ± 0.22 |
| DKWSWSVCNIRLSKSCNPVT | inactive |
| DLDFFGGCLFFHQGTIFYDG | inactive |
| DLDIRIFMVHDPAYCSLCSF | inactive |
| DLHVLSVK | inactive |
| DLIQLDALWDVRTHWTWGTP | inactive |
| DLNIVIPRIRAHRA | inactive |
